Data on one molecule can be found in patent US8329186B2, “Treatment of inflammation using BST2 inhibitor” (Isu Abxis Co., Ltd, priority 2004, dated 2012).

One experiment has as its system IL-4, IL-5 and IL-13. The experiment in a line: Ovalbumin-induced mouse model of asthma: cytokines in lung tissue (immunoblot). It is filed as in vivo. Particulars: ovalbumin-sensitized asthmatic mice. The procedure:
A mouse model of asthma was prepared by sensitizing mice (C57B6, 8 weeks) with ovalbumin. In detail, mice were initially sensitized for five continuous days by intranasal injection of ovalbumin. After three weeks, mice were intranasally sensitized again with ovalbumin for five continuous days. One week after the secondary sensitization, mice were challenged intranasally with ovalbumin three times every 24 hrs to induce asthma. Herein, a Bst2 decoy was intravenously injected into mice 30 min before sensitization with ovalbumin, and was injected into mice 30 min before the first sensitization and the last injection of ovalbumin. Three days after the last injection, serum samples, lung tissues, and the like were collected from mice.
When a Bst2 or Damp1 decoy was injected into a mouse model of asthma which was induced by sensitization and challenge with ovalbumin, expression levels of cytokines (interleukin-4 (IL-4), interleukin-5 (IL-5) and interleukin-13 (IL-13)) were measured as follows. […] The bound primary antibodies were detected with a HRP-conjugated secondary antibody (anti-rabbit HRP-conjugated IgG) using ECL reagent.
Expression of 11-4, IL-5 and IL-13 was measured in the murine asthma model as described in Example 8-3 after injection with Bst2 decoy or Bst2 decoy Fc fusion proteins.
(In general: A western blot detects proteins with antibodies after separation by electrophoresis.)

A further experiment concerns U937 cells. Kind of experiment: Direct binding of U937 cells to Bst2 decoy-coated plates. Conditions: Bst2 decoy-coated wells vs BSA. On the set-up: species or system human. The procedure: Flat-bottomed 96-well plates were coated with Bst2 decoy with sodium bicarbonate (100 mM, pH 9.5) for 2 hrs at 37° C. The plates were washed with PBS (pH 7.4) and incubated with 1% bovine serum albumin (BSA) at 25° C. After a rinse with PBS (pH 7.4) containing 1 mM CaCl2 and 0.5 mM MgCl2, U937 cells (1×10^6/ml) were added to each dBst2-coated well. After 2 hrs of incubation at 37° C., unbound cells were removed by two gentle washes with RPMI1640 media (Gibco-BRL) and bound cells were fixed with 2% paraformaldehyde for 20 minutes, washed, and stained with 0.5% crystal violet. After 30 minutes at 25° C., the plates were washed with PBS and bound cells were counted.

In experiment [1] the test system is TNCB-induced contact hypersensitivity. The experiment in a line: TNCB-induced contact hypersensitivity in mice. It is filed as in vivo, Balb/c mice. The procedure: To evaluate efficacy of Bst2 decoy on allergic dermatitis, contact hypersensitivity was induced by repeated application of 2,4,6-trinitro-1-chlorobenzene (TNCB) in Balb/c mice. The mice were initially sensitized with 0.2 ml of 1% TNCB solution on day 0, Subsequent challenges of 0.2 ml of 0.2% TNCB solution was applied to the shaved backs of the animals 2-3 times per week from week 2 to week 6. By the end of week 6, all animal developed lesions on the dorsal skin treated with TNCB solution (FIGS. 40A-40C).
During week 7, 5 daily doses of Bst2 decoy were administered at 10 mg/kg to the animals by intravenous injection, and the animals were sacrificed for observation at the end of week 7.
H&E staining was performed on exposed skin sections.

The subject of experiment [2] is OVA-induced atopic dermatitis. Kind of experiment: OVA-induced atopic dermatitis model in mice. It is filed as in vivo, BALB/c mice. The procedure:
An experimental model of atopic dermatitis based on immunity against ovalbumin (OVA) was utilized to test Bst2 decoy for efficacy in atopic dermatitis. BALB/c mice were immunized at the beginning of weeks 1, 2, and 3 with intraperitoneal injections of OVA/ALUM. During week 4, an OVA-soaked patch was applied to the shaved backs of the animals. The patches were removed and 5 daily doses of Bst2 decoy was administered to the animal by intravenous injections of 10 mg/kg during week 5. OVA-soaked patches were applied again to the animals over week 6 and the animals were sacrificed for evaluation at the beginning of week 7 (FIG. 43).
Serum was prepared from blood sample collected from the sacrificed animals. OVA-specific IgE levels were determined by ELISA assays in which OVA was coated on the plate, OVA-specific immunoglobulin present in the serum samples allowed to blind, and IgE levels ascertained utilizing anti-IgE specific antibodies.

Another experiment concerns TNF-alpha, IL-6, HMGB-1. The experiment in a line: CLP sepsis model: plasma inflammatory proteins (ELISA). It is filed as in vivo, rat. From the text:
(§1) A rat model of sepsis was induced through cecal ligation and puncture (CLP) as described previously (Wichterman K A, Baue A E, Chaudry I H: Sepsis and septic shock-a review of laboratory models and a proposal. J Surg Res 29:189-201, 1980). An incision was made along the midline of the abdomen on an anesthetized animal. The cecum was exteriorized, ligated and punctured with a stainless steel needle. An appropriate amount of fecal matter was then extruded. The gauge of the needle, number of punctures and amount of fecal matter extruded are all factors in determining the severity of sepsis and mortality. […] The incision was sutured and appropriate post-operative care was administered. Sham-operated animals were subjected to similar laparotomy and intestinal manipulation, however, the cecum was neither ligated nor punctured. Immediately or 6 hours after the CLP procedure, animals were given intravenous injection of vehicle or a Bst2 decoy.
Blood samples were collected at 1, 3, 6, 18 and 24 hours post-CLP. Plasma levels of representative inflammatory response proteins were measured using ELISA kits; TNF-alpha(BD Biosciences, San Diego, Calif.) and IL-6(BD Biosciences, San Diego, Calif.) at 1, 3, and 6 hours, HMGB-1 (Shino-Test Corp., Japan) at 18 and 24 hours. Typically, after CLP in rodents, TNF-alpha spikes at 3 hours and IL-6 spikes at 6 hours.

For the next experiment, the system named is CLP sepsis. Kind of experiment: CLP sepsis model: tissue and organ damage. It is filed as in vivo, rat.
Excerpt: as §1
Blood enzyme levels were measured at 6, 12, and 24 hours post-CLP (FIG. 49A-49D). Organ damage, as indicated by increased levels of alanine aminotransferase (ALT), aspartate aminotransferase (AST), blood urea nitrogen (BUN) and creatinine, was evident in all animals that underwent the CLP procedure.

B1: Bst2 decoy: soluble Bst2 protein fragment having the amino acid sequence of SEQ ID NO:1; extracellular region of human Bst2, six-histidine tag (protein)
chain: NSEACRDGLRAVMECRNVTHLLQQELTEAQKGFQDVEAQAATCNHTVMALMASLDAEKAQGQKKVEELEGEITTLNHKLQDASAEVERLRRENQVLSVRIADKKYYPSSQDHHHHHH
In the case of B1, the “cytokine levels (IL-4, IL-5, IL-13) in lung tissue” value with IL-4, IL-5 and IL-13 is “decreased with increasing doses”. The “attachment of U937 cells to coated wells” value with U937 cells is “attached”. The “recovery from TNCB-induced skin lesions” value in experiment [1] (10 mg/kg intravenous, 5 daily doses during week 7, vs vehicle alone) was “recovered much quicker”. Besides, the “H&E staining of exposed skin sections” value in experiment [1] (TNCB-treated mice) was “near-normal morphology with little signs of inflammation”. In addition, the “formation of lesions after OVA-soaked patch” value in experiment [2] (10 mg/kg intravenous, 5 daily doses during week 5, end of week 6) was “little if any formation of lesions”. In addition, in experiment [2] (ELISA), the “serum OVA-specific IgE levels” value was “substantial reduction”. Also, the “inflammation in H&E stained skin sections” value in experiment [2] (to a level similar to the negative control group) is recorded as “marked decrease in inflammation”. Also, in the experiment on TNF-alpha, IL-6, HMGB-1 (1, 3 and 6 hours post-CLP), the “plasma IL-6 spike” value is reported as “substantially suppressed” and the “plasma TNF-alpha response” value is given as “virtually absent”. Besides, in the experiment on TNF-alpha, IL-6, HMGB-1 (18 and 24 hours post-CLP), the “plasma HMGB-1” value is “reducing both the amount and rate of increase”. In the experiment on CLP sepsis (6, 12 and 24 hours post-CLP), the “blood levels of ALT, AST, BUN and creatinine” value is recorded as “near-normal level”. In addition, the “H&E staining of liver, kidney and lung sections” value in the experiment with CLP sepsis (24 post-CLP) is reported as “protective effects against organ damage”.
